Results reported in the supplement of paper PMC7877785.
± gives the uncertainty stated by the source.

Assay: self-splicing fitness, log relative to wild type (ln ratio); higher = more splicing; Tetrahymena group I intron in knt gene, E. coli kanamycin selection, DiMSum; sequences stand for … in CUCUCU…GGAGGGAAAAGUUAUCAGGCAUGCACCUGGUAGCUAGUCUUUAAACCAAUAGAUUGCAUCGGUUUAAAAGGCAAGACCGUCAAAUUGCGGGAAAGGGGUCAACAGCCGUUCAGUACCAAGUCUCAGGGGAAACUUUGAGAUGGCCUUGCAAAGGGUAUGGUAAUAAGCUGACGGACAUGGUCCUAACCACGCAGCCAAGUCCUAAGUCAACAGAUCUUCUGUUGAUAUGGAUGCAGUUCACAGACUAAAUGUCGGUCGGGGAAGAUGUAUUCUUCUCAUAAGAUAUAGUCGGACCUCUCCUUAAUGGGAGCUAGCGGAUGAAGUGAUGCAACACUGGAGCCGCUGGGAACUAAUUUGUAUGCGAAAGUAUAUUGAUUAGUUUUGGAGUACUCGUGGUCG
Procedure, shortened: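 Colonies from six replicate transformations of E. coli BL21(DE3) were pooled and amplicon-sequenced on an Illumina HiSeq 2500. The library placed an intron with all eight P1ex-region nucleotides randomised inside the knt kanamycin-resistance gene on pET-22b(+), and cells grew overnight at 37°C or 30°C on LB agar with or without 25 μg/mL kanamycin (plus 100 μg/mL carbenicillin, 50 μM IPTG, 0.2% rhamnose). Fitness is the DiMSum error-weighted combination of wild-type-normalised replicate fold changes, kanamycin versus none.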

Row | Sequence | self-splicing fitness (ln) (30 °C) | self-splicing fitness (ln) (37 °C)
1 | AUGAAGCAAUAUUACGGGGC | -4.78 ± 0.26 | -2.48 ± 0.2
2 | CUAUAGCAAUAUUACGGUGU | -4.24 ± 0.27 | -1.93 ± 0.22
3 | CUUUAGCAAUAUUACGCUGU | -2.75 ± 0.25 | -2.35 ± 0.37
4 | CCGUAGCAAUAUUACGUUCG | -0.619 ± 0.066 | 0.0526 ± 0.095
5 | UUUCAGCAAUAUUACGCCUG | -1.95 ± 0.12 | -1.02 ± 0.11
6 | GAAUAGCAAUAUUACGUUGU | -3.27 ± 0.14 | -2.38 ± 0.16
7 | UACUAGCAAUAUUACGAAGC | -2.06 ± 0.38 | -3.04 ± 0.43
8 | CAUAAGCAAUAUUACGUUGA | -3.55 ± 0.16 | -2.85 ± 0.16
9 | CGUUAGCAAUAUUACGCCGU |  | -0.993 ± 0.44
10 | UGCAAGCAAUAUUACGUGGC | -2.62 ± 0.16 | -1.68 ± 0.2
11 | UUCUAGCAAUAUUACGGUGU | -3.4 ± 0.32 | -2.91 ± 0.37
12 | GAUAAGCAAUAUUACGAUUA | -0.905 ± 0.12 | 0.0831 ± 0.12
13 | GAAAAGCAAUAUUACGGCCG | -0.796 ± 0.087 | -0.537 ± 0.12
14 | UCUUAGCAAUAUUACGUGCU | -3.12 ± 0.38 | -2.37 ± 0.48
15 | UAGAAGCAAUAUUACGAUCA | -0.731 ± 0.064 | 0.138 ± 0.086
16 | GCUAAGCAAUAUUACGGAUU | -1.14 ± 0.068 | -1.12 ± 0.092
17 | AGAGAGCAAUAUUACGAUCG | -1.94 ± 0.11 | -0.822 ± 0.18
18 | AUCUAGCAAUAUUACGAAAC |  | -1.96 ± 0.49
19 | AGAUAGCAAUAUUACGAGCA | -0.984 ± 0.1 | -0.95 ± 0.11
20 | AAACAGCAAUAUUACGGCGC | -1.43 ± 0.11 | -0.594 ± 0.16
21 | AAGCAGCAAUAUUACGAUAU | -0.287 ± 0.076 | -0.0114 ± 0.099
22 | CUCCAGCAAUAUUACGGGUG | -2.79 ± 0.097 | -1.53 ± 0.088
23 | AUCUAGCAAUAUUACGCGGA | -1.69 ± 0.26 | -2.53 ± 0.23
24 | CACUAGCAAUAUUACGCAAU | -1.48 ± 0.15 | -3.09 ± 0.35

Row | Sequence | self-splicing fitness (ln) (30 °C) | self-splicing fitness (ln) (37 °C)
25 | UUGCAGCAAUAUUACGAUAU | -4.06 ± 0.32 | -1.78 ± 0.24
26 | GAGAAGCAAUAUUACGGCUU | -3.58 ± 0.33 | -1.75 ± 0.24
27 | AAUUAGCAAUAUUACGCGAA | -1.34 ± 0.15 | -1.89 ± 0.25
28 | GACAAGCAAUAUUACGAGGA | -3.16 ± 0.21 | -2.42 ± 0.14
29 | CGCGAGCAAUAUUACGAUGA | -3.39 ± 0.32 | -1.7 ± 0.18
30 | ACUAAGCAAUAUUACGGUAU | -3.24 ± 0.17 | -1.73 ± 0.13
31 | AGCGAGCAAUAUUACGGAAU | -2.56 ± 0.26 | -2.66 ± 0.38
32 | GGGGAGCAAUAUUACGGCGA | -2.4 ± 0.26 | -1.81 ± 0.24
33 | GGUGAGCAAUAUUACGUCUA | -1.91 ± 0.16 | -1.42 ± 0.15
34 | AUAAAGCAAUAUUACGAUUU | 0.496 ± 0.082 | 0.827 ± 0.1
35 | AUAGAGCAAUAUUACGAUUG | -3.46 ± 0.2 | -1.33 ± 0.15
36 | CACUAGCAAUAUUACGAUAC | -3.41 ± 0.28 | -2.81 ± 0.38
37 | ACCUAGCAAUAUUACGCACA | -0.931 ± 0.078 | -0.476 ± 0.079
38 | ACACAGCAAUAUUACGUUAG | -3.46 ± 0.094 | -2.44 ± 0.1
39 | GUACAGCAAUAUUACGACUU | -0.754 ± 0.059 | -0.179 ± 0.073
40 | GUAGAGCAAUAUUACGUGGC | -1.52 ± 0.17 | -1.29 ± 0.27
41 | GGGUAGCAAUAUUACGAACU | -0.832 ± 0.27 | -0.534 ± 0.19
42 | CACUAGCAAUAUUACGAGAC | -3.77 ± 0.46 | 
43 | AACGAGCAAUAUUACGACGU | -0.822 ± 0.09 | -0.593 ± 0.089
44 | GGUCAGCAAUAUUACGCAUC | -0.704 ± 0.091 | -0.125 ± 0.1
45 | UGCCAGCAAUAUUACGACCG | -0.712 ± 0.1 | 0.509 ± 0.14
46 | CGUCAGCAAUAUUACGACCA | -0.734 ± 0.11 | -0.297 ± 0.13
47 | AAGCAGCAAUAUUACGAUAA | -1.69 ± 0.12 | -1.16 ± 0.13
48 | UGGGAGCAAUAUUACGAGCG | -1.56 ± 0.14 | -0.816 ± 0.15
